Source: paper PMC12257531, “Chaperone-Mediated Regulation of Tau Phase Separation, Fibrillation, and Toxicity” (Journal of the American Chemical Society, 2025)

Molecular target: Tau441 (recombinant full-length Tau protein), monomeric (UniProt P10636-8 1-441)
Test: cell-based or functional assay

Sequence of Tau441 (recombinant full-length Tau protein), monomeric (P10636 other isoform, or with tags, fused parts or gaps): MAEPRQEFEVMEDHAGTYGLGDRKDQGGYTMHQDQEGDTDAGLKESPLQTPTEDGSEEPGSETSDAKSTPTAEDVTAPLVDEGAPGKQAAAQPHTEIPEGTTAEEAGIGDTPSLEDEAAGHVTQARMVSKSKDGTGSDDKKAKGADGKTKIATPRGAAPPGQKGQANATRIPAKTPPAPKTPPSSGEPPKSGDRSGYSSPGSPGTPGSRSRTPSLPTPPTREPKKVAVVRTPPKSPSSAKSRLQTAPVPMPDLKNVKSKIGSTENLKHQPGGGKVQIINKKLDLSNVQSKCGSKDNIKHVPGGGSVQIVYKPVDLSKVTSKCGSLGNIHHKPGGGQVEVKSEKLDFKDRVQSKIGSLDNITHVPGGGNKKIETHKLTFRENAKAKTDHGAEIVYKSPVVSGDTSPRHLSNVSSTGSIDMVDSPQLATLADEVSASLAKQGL

B1: Bri2 BRICHOS domain R221E (residues 113-231 of Bri2), oligomeric fraction (domain or fragment, human)
chain: GSQTIEENIKIFEEEEVEFISVPVPEFADSDPANIVHDFNKKLTAYLDLNLDKCYVIPLNTSIVMPPRNLLELLINIKAGTYLPQSYLIHEHMVITDRIENIDHLGFFIYELCHDKETYKL
With B1 the “turbidity (absorbance at 350 nm) of 20 uM Tau441 with 8% PEG8000 and sub- to superstoichiometric Bri2 BRICHOS, relative to Tau441 droplets alone” value was 2 fold.
